The record followed here is PMC6066450.

The target in the assay is Neurabin (Nrb), endogenous in rat cortical neurons (rat (endogenous in primary cortical neurons)) (UniProt O35867). Nature of the assay: co-IP.
Sequence of UniProt O35867 (O35867 whole entry): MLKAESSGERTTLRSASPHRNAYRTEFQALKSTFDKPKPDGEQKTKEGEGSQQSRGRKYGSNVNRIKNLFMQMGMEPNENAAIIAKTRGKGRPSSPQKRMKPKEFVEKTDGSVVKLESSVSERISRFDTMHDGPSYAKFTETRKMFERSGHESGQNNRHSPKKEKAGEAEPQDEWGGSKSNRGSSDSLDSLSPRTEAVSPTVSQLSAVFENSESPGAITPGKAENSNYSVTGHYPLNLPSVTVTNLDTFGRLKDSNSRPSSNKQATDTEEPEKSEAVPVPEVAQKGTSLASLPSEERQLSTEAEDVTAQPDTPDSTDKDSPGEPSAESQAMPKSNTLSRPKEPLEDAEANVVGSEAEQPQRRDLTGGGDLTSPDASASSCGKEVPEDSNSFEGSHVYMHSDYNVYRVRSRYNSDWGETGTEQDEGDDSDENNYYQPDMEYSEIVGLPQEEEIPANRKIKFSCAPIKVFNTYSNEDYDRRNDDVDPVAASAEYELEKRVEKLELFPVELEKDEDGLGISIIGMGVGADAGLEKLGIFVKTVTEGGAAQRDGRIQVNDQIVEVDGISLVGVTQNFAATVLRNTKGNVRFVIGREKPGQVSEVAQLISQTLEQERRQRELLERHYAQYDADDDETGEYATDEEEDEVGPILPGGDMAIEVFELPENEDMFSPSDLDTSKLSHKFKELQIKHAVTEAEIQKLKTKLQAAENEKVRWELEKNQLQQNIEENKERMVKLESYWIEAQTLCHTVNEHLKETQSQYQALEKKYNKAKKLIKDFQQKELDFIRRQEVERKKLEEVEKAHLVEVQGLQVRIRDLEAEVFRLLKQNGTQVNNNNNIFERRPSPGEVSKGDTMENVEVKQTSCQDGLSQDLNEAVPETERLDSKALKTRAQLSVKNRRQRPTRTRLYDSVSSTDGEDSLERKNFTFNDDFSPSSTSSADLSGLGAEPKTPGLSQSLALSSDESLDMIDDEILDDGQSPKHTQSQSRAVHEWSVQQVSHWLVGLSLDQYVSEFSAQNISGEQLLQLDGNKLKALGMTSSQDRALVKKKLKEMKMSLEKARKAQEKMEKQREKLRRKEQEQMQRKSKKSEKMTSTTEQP

Substance “Protein phosphatase-1 (PP1), endogenous in rat cortical neurons (from UniProt P62138 1-330) (enzyme)” had a PP1 co-IPed with Nrb after forskolin, percent of no forskolin control of 62.8%.
